Laboratory results as given in US6100378A, “Enhancement of the pro-fertility action of a molecule involved in a sperm-egg binding” (BioPore, Inc., priority 1999, dated 2000).
“And” between values parts separate entries of the source, which are not always exact repeats. Identical values can stand only once. Bridge positions count the residues as written; N and C are the ends. Ends that are not written are not given here.

B1: Cys-Gln-Ser-Leu-Gln-Glu-Tyr-Leu-Ala-Glu-Gln-Asn-Gln-Arg-Gln-Leu-Glu-Ser-Asn-Lys-Ile-Pro-Glu-Val-Asp-Leu-Ala-Agr-Val-Val-Ala-Pro-Phe-Met-Ser-Asn-Ile-Pro-Leu-Leu-Leu-Tyr-Pro-Gln-Asp-Arg-Pro-Arg-Ser-Gln- … (peptide)
chain: CQSLQEYLAEQNQRQLESNKIPEVDLAAVVAPFMSNIPLLLYPQDRPRSQPQPKANEDVCVNHHHHHH

Legend:
[1] = system: frozen-thawed rooster sperm bound to an egg-membrane substrate; assay: BioPore Sperm-Binding Assay: percentage of sperm binding to an egg-membrane substrate; assay type: cell-based; conditions: 10 minutes at 37° C. exposure, 2 million sperm/well
Protocol: All three peptides were incubated at 0, 20 and 80 ng peptide/million sperm prior to evaluation. Ration % bound calculated as: % bound with Peptide / % bound for Control; and
We used the BioPore® Sperm-Binding Assay (Amann et al., 1999) to compare. percentage of sperm binding to an egg-membrane substrate (similar to Barbato et al., 1998) after brief in vitro exposure to three concentrations of a prior art peptide (Hammerstedt et al., 1997), representing each of two lots of peptide SEQ ID NO: 4 (after disulfide linking the cystine residues) or three concentrations of SEQ ID NO: 1 (after disulfide linking the cystine residues). Briefly, cryopreserved rooster semen (Gill et al., 1996) from broiler males (Barbato et al., 1998) was thawed, deglycerolated (Gill et al., 1996), and adjusted to provide a concentrated suspension of sperm in an appropriate salts buffer. We used one containing: 0.600 g sodium glutamate, 0.210 g potassium glutamate, 0.100 g glucose, 0.070 g sorbitol, 0.035 g magnesium sulfate, 0.210 g potassium acetate, 0.050 g potassium citrate, 0.700 g di-potassiumphosphate, 0.160 g mono-potassium phosphate, 0.800 g di-sodium phosphate, 0.100 9 potassium hydroxide, 0.300 g N,N -bis[2-hydroxyethyl]-2-aminoethanesulfonic acid, 0.400 g N-[2-hydroxyethyl]piperazine-N'-[2-ethanesulfonic acid], and 0.400 g N-tris[hydroxymethyl]methyl-2-aminoethanesulfonic acid, dissolved in distilled water to make 100 ml (Tajima et al., 1989). Aliquots of this suspension were placed in tubes containing one of the three peptide sequences at 0, 20 or 80 ng per million sperm. After mixing and 10 minutes incubation at 37° C., the suspensions were further diluted and assayed using 2 million sperm/well in the microwell assay plates. Plates were incubated at 32° C. for 60 min, after which unbound sperm were decanted, the wells washed, and the DNA in sperm bound to the egg-membranesubstrate in the microwell plates quantified (Barbato et al., 1998). […] With SEQ ID NO: 1, however, binding for suspensions exposed to either 20 or 80 ng/million sperm was greater, namely 1.20 and 1.22 the control value.

[2] = system: White Leghorn hens inseminated with frozen-thawed rooster sperm; assay: Fertility trial: artificial insemination of hens with frozen-thawed rooster sperm exposed to peptide; assay type: in vivo, chicken
Source text: Each bar based on >425 eggs.
To compare fertility achieved after exposure of rooster sperm to SEQ ID NO: 4 and SEQ ID NO: 1, we used cryopreserved semen as in Example 1. To facilitate detection of benefit from peptides, we used a limited number of sperm for each artificial insemination. Pooled, deglycerolated semen (1 billion sperm/ml; at 0-4C.), in salts buffer as described in Example 1, was dispensed into tubes containing SEQ ID NO: 4 or SEQ ID NO: 1 to make nine suspensions: 0.0 (control), 0.2, 0.5, 1.0 or 2.0 μM and mixed. Artificial insemination of White Leghorn hens (40/group) was within 1 hour, and used 50 μl (50 million sperm). Eggs were collected daily, stored ≤7 d at 14C., incubated, and candled on day 7 (eggs with viable embryo were classed as fertile). Data resulting from four inseminations at 4-day intervals are shown (FIG. 2). It was concluded that both 0.2 and 0.5 μM SEQ ID NO: 4 improved fertility as did 0.2, 0.5, 1.0 and 2.0 μM SEQ ID NO: 1. […] The increase in fertility (above the control value) with the best concentration of SEQ ID NO: 1 (15.4 units at 2.0 μM) was 2.0× that with SEQ ID NO: 4 (7.8 units at 0.5 μM). Clearly, brief in vitro exposure of sperm to SEQ ID NO: 1 rather than SEQ ID NO: 4 before artificial insemination gave a greater increase in percentage of fertilized eggs over a greater range in concentration.

[3] = 20 ng peptide/million sperm, SEQ ID NO: 4 as 2 preparations (lots)

Molecule | binding relative to the value for the non-peptide control (ratio % bound with peptide / % bound for control) [1, 3] | binding relative to the value for the non-peptide control (ratio % bound with peptide / % bound for control) ([1]; 80 ng peptide/million sperm) | increase in fertility (above the control value) with the best concentration ([2]; 2.0 μM peptide, percentage of fertilized eggs, 50 million sperm, four inseminations at 4-day intervals) | increase in fertility with best concentration relative to that with SEQ ID NO: 4 ([2]; SEQ ID NO: 1 at 2.0 μM vs SEQ ID NO: 4 at 0.5 μM) | fold range of concentrations of benefit to fertility ([2]; tested 0.2, 0.5, 1.0, 2.0 μM)
CQSLQEYLAEQNQRQLESNKIPEVDLARVVAPFMSNIPLLLYPQDRPRSQPQPKANEDVC (disulfide 1-60) [SEQ ID NO: 4, reference compound] | 1.13 × and 1.17 × |  |  |  | 
B1 | 1.20 × | 1.22 | 15.4 units | 2.0 × | ≥ 10 fold
